From article PMC6424575

Target: stand-alone thioesterase (TE) domain of the 6-deoxyerythronolide B synthase (DEBS)
Assay: SEC

stoichiometry N: 2
Substance: stand-alone thioesterase (TE) domain of the 6-deoxyerythronolide B synthase (DEBS) (domain or fragment)
